This is an account of results in article PMC10974264, “The Evolution and Application of a Novel DNA Aptamer Targeting Bone Morphogenetic Protein 2 for Bone Regeneration”.

Series [1] concerns the target T1, rhBMP-2 (His-tagged, refolded, E. coli-expressed) (human, UniProt P12643 283-396).
T1 sequence: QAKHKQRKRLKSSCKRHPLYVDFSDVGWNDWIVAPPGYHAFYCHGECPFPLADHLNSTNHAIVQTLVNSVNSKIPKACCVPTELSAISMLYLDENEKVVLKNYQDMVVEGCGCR
The series can be described thus: ELONA; immobilized rhBMP-2, 100 ng/well; EMSA: 20 mM HEPES pH 7.4, 150 mM NaCl, 2 mM MgCl2, 2 mM CaCl2, 2 mM KCl, 37 C 1 h, 12% native PAGE at 4 C; ELONA: His-rhBMP-2 on HisSorb plate, biotinylated DNA 1 h at 37 C, PBST washes. To be noted: protein: recombinant, tags: His tag (pET-15b NdeI/BamHI), chain copies: 2, label: biotin (ELONA), none in EMSA.

For series [2], the target named is T1, rhBMP-2 (His-tagged, refolded, E. …). The series can be described thus: ELISA-like; fiber of 500 nM BA1 and 10% type I collagen (0.3 mg/mL); EMSA: 20 mM HEPES pH 7.4, 150 mM NaCl, 2 mM MgCl2, 2 mM CaCl2, 2 mM KCl, 37 C 1 h, 12% native PAGE at 4 C; ELONA: His-rhBMP-2 on HisSorb plate, biotinylated DNA 1 h at 37 C, PBST washes. To be noted: protein: recombinant; tags: His tag (pET-15b NdeI/BamHI); chain copies: 2; label: biotin.

B1: BNA2 (ssDNA)
DNA: CGTACGGTCGACGCTAGCATCAGCTCTCTGGGCTGAGTGGGTGGTGTGGCACGCACGTGGAGCTCGGATCC
On to B1, for which the Kd in series [1] was determined as 22.3 ± 1.97 nM.

B2: BA2 (ssDNA)
DNA: CGTACGGTCGACGCTAGCAAAAAAAAATCTAAAAACAAGAAAAGAAAAACAAACACGTGGAGCTCGGATCC
B2: in series [1], the Kd was 20.3 ± 4.73 nM.

B3: BA1 (ssDNA)
DNA: CGTACGGTCGACGCTAGCAAAACAAAAAAAAATAAAAAAAAAAAGACTAAAGACACGTGGAGCTCGGATCC
Turning to B3, the Kd in series [1] (single strand, predicted hairpin-like) was 6.95 ± 0.53 nM.

B4: BA1 in collagen fiber (ssDNA)
DNA: CGTACGGTCGACGCTAGCAAAACAAAAAAAAATAAAAAAAAAAAGACTAAAGACACGTGGAGCTCGGATCC
As for B4, the Kd in series [2] is around 3.5 nM.
